Test results published in publication PMC3546673.
One block for each substance: values may come before it.

Tests used:
[1] = target: F-actin (actin filaments) (UniProt P68135); test: single filament binding assay (fluorescence microscopy); actin filaments from 1 μM G-actin with rhodamine-phalloidin (1 μM) and Alexa-488-labeled trx protein (5 μM), 22 °C, 30 min; diluted 1:50 and put on poly-L-lysine-coated coverslips
[2] = target: gelsolin-capped actin filaments (UniProt P68135); test: single filament binding assay (fluorescence microscopy); gelsolin-capped actin filaments labeled with rhodamine-phalloidin, incubated with Alexa-488-conjugated trx-PT or mutant (5 μM), 22 °C, 30 min; diluted 1:50 and put on poly-L-lysine-coated coverslips

percent localized at the filament end [1]: 96%
Substance: recombinant thioredoxin-phostensin (trx-PT) (natural protein)

percent localized at a filament end [2]: 96%
Substance: trx-PT(35–165) (domain or fragment)

percent bound to the sides of actin filaments [1]: 98%
Substance: trx-PT(125–165) (domain or fragment)
